Laboratory results reported in PMC5912465.

Biological target: CCL8 (human chemokine panel) (human) (UniProt P80075)
Sequence (P80075 24-99): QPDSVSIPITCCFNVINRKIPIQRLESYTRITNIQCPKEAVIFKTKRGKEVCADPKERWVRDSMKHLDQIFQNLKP

P672(1_44)-EVA1(29_94) hybrid evasin (from UniProt L7MC74;P0C8E7)
IC50 of neutralization of CCL8-induced THP-1 monocyte cell migration (EC80 dose of CCL8): 48 nM
